# Source: patent US20220160939A1, “SELF-ASSEMBLING PEPTIDES AS BRONCHIAL OBSTRUCTION AGENTS” (3-D MATRIX, LTD., priority 2014, published 2022)
# Key:
# [1] = Rheological properties of pH adjusted peptide solutions; format: physicochemical; conditions: pH adjusted vs not adjusted; KLD12 1%, IEIK13 1%, PuraMatrix 1% and 2.5%
# Experimental: Based on the visual observation of the effect of pH level on the properties of the peptide solutions, the effect on the rheological properties of the peptide solutions after adjusting their pH level to 3.4 (PuraMatrix® (SEQ ID NO:1) and KLD12 (SEQ ID NO:3)) or 3.7 (IEIK13 (SEQ ID NO:2)) was evaluated. If the pH levels of peptide solutions are higher than 3.5 (PuraMatrix® (SEQ ID NO:1) and KLD12 (SEQ ID NO:3)) or 3.7 (IEIK13 (SEQ ID NO:2)), the peptide solution began phase separation becoming cloudy. The rheological properties of PuraMatrix® (SEQ ID NO:1), KLD12 (SEQ ID NO:3) and IEIK13 (SEQ ID NO:2) solutions were higher at pH 3.4. The results are shown in FIG. 2 for KLD12 (SEQ ID NO:3) 1%, FIG. 3 for IEIK13 (SEQ ID NO:2) 1%, and FIGS. 4-5 for PuraMatrix® (SEQ ID NO:1) 1% and 2.5%, respectively. Stress sweep tests were performed at 10 rad/s. Frequency sweep tests were performed at 1 Pa.
# Based on the results of the effect on the rheological properties of the peptide solutions after adjusting their pH level to 3.4 (PuraMatrix® (SEQ ID NO:1) and KLD12 (SEQ ID NO:3)) or 3.7 (IEIK13 (SEQ ID NO:2)), the effect on the rheological properties of the peptide solutions at various pH levels was evaluated. […] The rheological properties of peptides were evaluated at various concentrations using a rheometer (DHR-1, TA Instruments) with 20 mm plates. The results are shown in FIG. 6A for PuraMatrix® (SEQ ID NO:1) 2.5% solution and FIG. 6B for IEIK13 (SEQ ID NO:2) 1.5% solution, respectively. Frequency sweep tests were performed from 1 rad/sec to 10 rad/sec at 1 Pa and the storage modulus at 1 rad/sec was selected for data.
# [2] = pH and appearance of 2.5% peptide solutions after adding 0.1 N NaOH; format: physicochemical
# Experimental: To adjust the pH level of the peptide solutions by way of example, 0.1 N NaOH was added to 2 mL of 2.5% peptide solutions and their pH and appearance were measured.
# Swine lungs = assay: Lung volume reduction: injection of peptide hydrogel into bronchi of excised lungs
# Excerpt: Swine lungs were obtained from freshly euthanized pigs. An endotracheal tube, connected to a syringe filled with a peptide hydrogel, was inserted through the trachea and primary bronchus into the lobe of interest. The tube was led through the bronchi to the end of the appropriate lobe and the distance was noted.
# The self-assembling peptide hydrogels were comprised of Ac-RADARADARADARADA-NH2 (SEQ ID NO: 1) (i.e., RADA16) or Ac-IEIKIEIKIEIKI-NH2 (SEQ ID NO: 2) (i.e., IEIK13). RADA16 (SEQ ID NO:1) or IEIK13 (SEQ ID NO:2) was mixed with 0.00585% Indigo Carmine to observe spreading of the hydrogels throughout the lobes. When mixed, the peptides were reconstituted with […]. The peptides were reconstituted first in deionized water, and subsequently with 1% Indigo Carmine to provide a final concentration of 0.00585% of the contrast reagent.
# Once the lobe of interest was identified, the endotracheal tube was fed to the end where the hydrogels were injected. After each injection of 1 ml of hydrogel the tube was retracted 2 cm and the injection was repeated. This procedure was repeated until a backflow of hydrogel was observed from the bronchi and the total volume of hydrogel injected was noted. The final injection ranged from 0.5-1.5 ml. After backflow of hydrogel was observed, the lobes were cut at 90 degrees to the midline for histological analysis. FIG. 25 illustrates the procedural flow of injecting peptide hydrogel into the bronchi of a single lobe of the lung and observation of penetration of the solution. Lumen penetration of 1% Indigo Carmine solution (left) was compared to 1.5% IEIK13 (SEQ ID NO:2)+0.00585% Indigo Carmine (right).
# Tissue samples were fixed in paraformaldehyde and rinsed with ethanol. Histology was conducted at Beth Israel Deaconess Medical Center. […] FIG. 28A presents the IEIK13 (SEQ ID NO:2) gel observed within the major lumens. FIG. 28B presents the IEIK13 ((SEQ ID NO:2) gel observed within the minor lumens. Due to H&E processing, peptide gels break/fragment. Optical imaging has shown that these gels remain as bulk structures.
# [3] = Appearance of 1.5% peptide solutions with various salts at room temperature; format: physicochemical; conditions: for Appearance: room temperature
# Experimental: The effect of salt ionic strength level on the properties of peptide solutions was evaluated to identify optimized salt ionic strength levels for the peptides as described herein. Increasing the salt ionic strength level of PuraMatrix® (SEQ ID NO:1) and other peptides may generally improve its function and mechanical strength for various clinical applications. To adjust the salt ionic strength of the peptide solutions by way of example, various salt buffer solutions including NaCl, KCl, MgCl2, CaCl2 and DPBS (10×) were added to 2 mL of 1.5% peptide solutions.
substance,measurement,setting,value
Arg-Ala-Asp-Ala-Arg-Ala-Asp-Ala-Arg-Ala-Asp-Ala-Arg-Ala-Asp-Ala [PuraMatrix ®],rheological properties of solutions at pH 3.4,[1],higher
same,Appearance,"[2]; 0.1N NaOH 150 μL/mL added in 2.5% solution, conc. 2.17%","Clear, thick, stiffer gel"
same,Appearance,"[2]; 0.1N NaOH 200 μL/mL added in 2.5% solution, conc. 2.08%","Clear, thick, stiffer gel"
same,Appearance,"[2]; 0.1N NaOH 250 μL/mL added in 2.5% solution, conc. 2.0%","Clear, thick, stiffer gel"
same,Appearance,"[2]; 0.1N NaOH 275 μL/mL added in 2.5% solution, conc. 1.96%","Clear, thick, stiffer gel"
same,Appearance,"[2]; 0.1N NaOH 300 μL/mL added in 2.5% solution, conc. 1.92%","Slightly cloudy, brittle gel"
same,Appearance,"[2]; 0.1N NaOH 350 μL/mL added in 2.5% solution, conc. 1.85%","Cloudy, phase-separated"
same,Peptide solution pH,[2]; NaOH volume and conc. not given,7.0
same,Appearance,"[2]; peptide solution pH 7.0, NaOH volume and conc. not given","Cloudy, phase-separated"
same,"lung volume reduction, penetration into lung tissue, versus 1.5% IEIK13",Swine lungs; 1.0% with 0.00585% Indigo Carmine,decidedly better
same,filling of lumens of the lungs (histology),Swine lungs; hydrogel with 0.00585% Indigo Carmine,filled both major and minor lumens
same,critical salt ionic strengths at which peptides become cloudy,[3],0.9˜1.2 M
same,Appearance,"[3]; CaCl2 0 M, ionic strength 0 M, conc. 1.5%","Clear, thick gel"
same,Appearance,"[3]; CaCl2 0.05 M, ionic strength 0.15 M, conc. 1.48%","Clear, thick, stiffer gel"
same,Appearance,"[3]; CaCl2 0.1 M, ionic strength 0.3 M, conc. 1.45%","Clear, thick, stiffer gel"
same,Appearance,"[3]; CaCl2 0.15 M, ionic strength 0.45 M, conc. 1.43%","Clear, thick, stiffer gel"
same,Appearance,"[3]; CaCl2 0.2 M, ionic strength 0.6 M, conc. 1.4%","Clear, thick, stiffer gel"
same,Appearance,"[3]; CaCl2 0.25 M, ionic strength 0.75 M, conc. 1.38%","Clear, thick, stiffer gel"
same,Appearance,"[3]; CaCl2 0.3 M, ionic strength 0.9 M, conc. 1.35%","Clear, thick, stiffer gel"
same,Appearance,"[3]; CaCl2 0.35 M, ionic strength 1.05 M, conc. 1.32%","Clear, thick, stiffer gel"
same,Appearance,"[3]; CaCl2 0.383 M, ionic strength 1.15 M, conc. 1.31%","Clear, thick, stiffer gel"
same,Appearance,"[3]; CaCl2 0.4 M, ionic strength 1.2 M, conc. 1.3%","Slightly cloudy, thick, stiffer gel"
same,Appearance,"[3]; CaCl2 0.417 M, ionic strength 1.25 M, conc. 1.29%","Slightly cloudy, brittle gel"
same,Appearance,"[3]; CaCl2 0.433 M, ionic strength 1.3 M, conc. 1.28%","Cloudy, phase-separated"
same,Appearance,"[3]; DPBS (pH 3.2) 0 M, ionic strength 0 M, conc. 1.5%","Clear, thick gel"
same,Appearance,"[3]; DPBS (pH 3.2) 0.15 M, ionic strength 0.15 M, conc. 1.35%","Clear, thick, stiffer gel"
same,Appearance,"[3]; DPBS (pH 3.2) 0.3 M, ionic strength 0.3 M, conc. 1.2%","Clear, thick, stiffer gel"
same,Appearance,"[3]; DPBS (pH 3.2) 0.45 M, ionic strength 0.45 M, conc. 1.05%","Clear, thick, stiffer gel"
same,Appearance,"[3]; DPBS (pH 3.2) 0.6 M, ionic strength 0.6 M, conc. 0.9%","Clear, thick, stiffer gel"
same,Appearance,"[3]; DPBS (pH 3.2) 0.75 M, ionic strength 0.75 M, conc. 0.75%","Clear, thick, stiffer gel"
same,Appearance,"[3]; DPBS (pH 3.2) 0.9 M, ionic strength 0.9 M, conc. 0.6%","Clear, thick, stiffer gel"
same,Appearance,"[3]; DPBS (pH 3.2) 0.95 M, ionic strength 0.95 M, conc. 0.55%","Slightly cloudy, brittle gel"
same,Appearance,"[3]; DPBS (pH 3.2) 1.0 M, ionic strength 1.0 M, conc. 0.5%","Cloudy, phase-separated"
same,Appearance,"[3]; KCl 0 M, ionic strength 0 M, conc. 1.5%","Clear, thick gel"
same,Appearance,"[3]; KCl 0.15 M, ionic strength 0.15 M, conc. 1.43%","Clear, thick, stiffer gel"
same,Appearance,"[3]; KCl 0.3 M, ionic strength 0.3 M, conc. 1.35%","Clear, thick, stiffer gel"
same,Appearance,"[3]; KCl 0.45 M, ionic strength 0.45 M, conc. 1.27%","Clear, thick, stiffer gel"
same,Appearance,"[3]; KCl 0.6 M, ionic strength 0.6 M, conc. 1.2%","Clear, thick, stiffer gel"
same,Appearance,"[3]; KCl 0.75 M, ionic strength 0.75 M, conc. 1.13%","Clear, thick, stiffer gel"
same,Appearance,"[3]; KCl 0.9 M, ionic strength 0.9 M, conc. 1.05%","Clear, thick, stiffer gel"
same,Appearance,"[3]; KCl 0.95 M, ionic strength 0.95 M, conc. 1.03%","Clear, thick, stiffer gel"
same,Appearance,"[3]; KCl 1.0 M, ionic strength 1.0 M, conc. 1.0%","Clear, thick, stiffer gel"
same,Appearance,"[3]; KCl 1.05 M, ionic strength 1.05 M, conc. 0.98%","Slightly cloudy, thick, stiffer gel"
same,Appearance,"[3]; KCl 1.1 M, ionic strength 1.1 M, conc. 0.95%","Slightly cloudy, brittle gel"
same,Appearance,"[3]; KCl 1.15 M, ionic strength 1.15 M, conc. 0.93%","Cloudy, phase-separated"
same,Appearance,"[3]; MgCl2 0 M, ionic strength 0 M, conc. 1.5%","Clear, thick gel"
same,Appearance,"[3]; MgCl2 0.05 M, ionic strength 0.15 M, conc. 1.48%","Clear, thick, stiffer gel"
same,Appearance,"[3]; MgCl2 0.1 M, ionic strength 0.3 M, conc. 1.45%","Clear, thick, stiffer gel"
same,Appearance,"[3]; MgCl2 0.15 M, ionic strength 0.45 M, conc. 1.43%","Clear, thick, stiffer gel"
same,Appearance,"[3]; MgCl2 0.2 M, ionic strength 0.6 M, conc. 1.4%","Clear, thick, stiffer gel"
same,Appearance,"[3]; MgCl2 0.25 M, ionic strength 0.75 M, conc. 1.38%","Clear, thick, stiffer gel"
same,Appearance,"[3]; MgCl2 0.3 M, ionic strength 0.9 M, conc. 1.35%","Clear, thick, stiffer gel"
same,Appearance,"[3]; MgCl2 0.35 M, ionic strength 1.05 M, conc. 1.32%","Clear, thick, stiffer gel"
same,Appearance,"[3]; MgCl2 0.383 M, ionic strength 1.15 M, conc. 1.31%","Clear, thick, stiffer gel"
same,Appearance,"[3]; MgCl2 0.4 M, ionic strength 1.2 M, conc. 1.3%","Slightly cloudy, thick, stiffer gel"
same,Appearance,"[3]; MgCl2 0.417 M, ionic strength 1.25 M, conc. 1.29%","Slightly cloudy, brittle gel"
same,Appearance,"[3]; MgCl2 0.433 M, ionic strength 1.3 M, conc. 1.28%","Cloudy, phase-separated"
same,Appearance,"[3]; NaCl 0 M, ionic strength 0 M, conc. 1.5%","Clear, thick gel"
same,Appearance,"[3]; NaCl 0.15 M, ionic strength 0.15 M, conc. 1.43%","Clear, thick, stiffer gel"
same,Appearance,"[3]; NaCl 0.3 M, ionic strength 0.3 M, conc. 1.35%","Clear, thick, stiffer gel"
same,Appearance,"[3]; NaCl 0.45 M, ionic strength 0.45 M, conc. 1.27%","Clear, thick, stiffer gel"
same,Appearance,"[3]; NaCl 0.6 M, ionic strength 0.6 M, conc. 1.2%","Clear, thick, stiffer gel"
same,Appearance,"[3]; NaCl 0.75 M, ionic strength 0.75 M, conc. 1.13%","Clear, thick, stiffer gel"
same,Appearance,"[3]; NaCl 0.8 M, ionic strength 0.8 M, conc. 1.10%","Clear, thick, stiffer gel"
same,Appearance,"[3]; NaCl 0.85 M, ionic strength 0.85 M, conc. 1.08%","Clear, thick, stiffer gel"
same,Appearance,"[3]; NaCl 0.9 M, ionic strength 0.9 M, conc. 1.05%","Slightly cloudy, brittle gel"
same,Appearance,"[3]; NaCl 0.95 M, ionic strength 0.95 M, conc. 1.03%","Cloudy, phase-separated"
same,Appearance,"[3]; NaCl 1.0 M, ionic strength 1.0 M, conc. 1.0%","Cloudy, phase-separated"
same,"salt ionic strength increase that did not change the clear color, while apparent stiffness increased","[3]; depending on different salts, 1.5% peptide solutions",0.85˜1.15 M
